These results are taken from patent US8828940B2, “Method of treating an ischemia-reperfusion injury-related disorder by administering GPCR ligands” (priority 2006, dated 2014).

Like-named read-outs stand apart in the source and are kept apart here. No end group written: not given here.

Test [1] addresses T1, FPRL1 (Homo sapiens, UniProt P25090).
T1 sequence (P25090 1-351): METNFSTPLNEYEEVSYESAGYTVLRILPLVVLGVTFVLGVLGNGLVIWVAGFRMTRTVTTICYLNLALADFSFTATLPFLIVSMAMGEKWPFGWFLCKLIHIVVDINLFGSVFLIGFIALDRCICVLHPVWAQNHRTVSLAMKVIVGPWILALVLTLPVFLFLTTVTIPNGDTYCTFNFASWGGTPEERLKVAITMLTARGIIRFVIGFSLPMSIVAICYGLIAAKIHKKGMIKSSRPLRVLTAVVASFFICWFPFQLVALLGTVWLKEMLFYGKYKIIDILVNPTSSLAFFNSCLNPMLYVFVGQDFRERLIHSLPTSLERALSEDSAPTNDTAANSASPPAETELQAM
Nature of the test: Calcium flux in FPRL1-transfected CHO-K1 cells. The class given is cell-based. More on the design: expressed in transfected cells; host or cells: CHO-K1 (ATCC-CCL-61), transient co-transfection. The settings on record: for calcium flux (P58 family): dose response, FPRL1 transfected CHO cells; for ability to induce calcium flux (P33 family): 0.1, 1, 10, 100, 1000, 10000 nM. The procedure: (§1) The assay was carried out in CHO cells were transiently transfected with the GPCR of choice, by utilizing the promiscuous Gα16 to divert signaling to the Gq pathway, thus enabling readout of GPCR activation by testing for Calcium flux as described by Liu et al 2003 (Biomol Screen 8, 39-49).
(§2) All the peptides thus obtained were tested for their ability to change calcium flux in CHO-K1 cells (ATCC-CCL-61) transiently co-transfected with an expression vector containing the GPCR of choice and expression vector containing the Gα16 encoding cDNA. Expression constructs containing cDNA clones for MrgX1, MrgX2, Mas or FPRL1 were commercially obtained in one of the following expression vectors: pcDNA3.1, pCMV6, or MO2.
(§3) Transient transfections were performed using CHO-K1 cells as host cells. Cells (12 million) were plated into T75 flasks on the day preceding transfection. Cells were transfected with the appropriate GPCR expression vector and with a vector expressing Gα16 using a lipid-based reagent, MTI, according to the manufacturer's recommendation. Cells were transfected for 5 hours, then re-plated into 96-well dishes (60,000 cells per well) and grown overnight.
On the day of the experiment, cells were loaded with Fluo-4-NW (Invitrogen) according to the manufacturer's recommendation. Plates were loaded into a FlexStation™ (Molecular Devices) plate reader and fluorescence was monitored. […] Each 96 well plate contained cells transfected with one GPCR expression vector and each of the examined peptides was tested in triplicate.
(§4) We defined a hit as a peptide which elicited a clear and distinct increase in intracellular calcium that is clearly visible and statistically significant upon examination of the calcium trace for at least two repeats. The criterion for statistical significance was a p-value lower than 0.001 in a t-test comparing the levels of calcium before and after peptide addition.
The ability of Peptides to change calcium flux was examined in CHO-K1 cells co-transfected with FPRL1 and Gα16.
The P33-derived peptides (see FIG. 1): P33_V (SEQ ID NO:7), P33 (SEQ ID NO:6)-mono, P33 (SEQ ID NO:6)-dimer, P33—5 (SEQ ID NO:27), P33—8 (SEQ ID NO:14), P33—9 (SEQ ID NO:15) and P33—10 (SEQ ID NO:16) were tested for their ability to activate FPRL1 using the calcium flux assay in FPRL1-transfected CHO cells. […] The lack of activity of these peptides might be due to reduced potency; insufficient sensitivity of the experimental system, alternative interaction of the receptor, or activation of other pathways, which are not related to calcium flux. Thus, this interaction should be further characterized.

Test [2] concerns the target T2, Mas receptor (Homo sapiens, UniProt P04201).
T2 construct: expressed in transfected cells; host or cells: CHO-K1 (ATCC-CCL-61), transient co-transfection
T2 sequence (P04201 1-325): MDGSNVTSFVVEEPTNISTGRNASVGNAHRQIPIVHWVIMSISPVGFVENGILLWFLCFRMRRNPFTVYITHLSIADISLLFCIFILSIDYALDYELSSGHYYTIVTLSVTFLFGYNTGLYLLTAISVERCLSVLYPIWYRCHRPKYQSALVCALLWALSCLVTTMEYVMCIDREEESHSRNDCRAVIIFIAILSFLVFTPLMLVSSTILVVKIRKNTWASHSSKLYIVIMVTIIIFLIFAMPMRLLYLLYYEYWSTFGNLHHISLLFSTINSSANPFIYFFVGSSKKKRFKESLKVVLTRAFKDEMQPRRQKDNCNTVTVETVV
As to the kind of experiment: Calcium flux in Mas-transfected CHO-K1 cells. The note with it: for ability to induce calcium flux, relative potency (P33 family): 0.1, 1, 10, 100, 1000 and 10000 nM; for ability to induce calcium flux, relative potency (P61 family): dose response, Mas-transfected cells. It is filed as cell-based. The method, then:
as §1, §2, §3
On the day of the experiment, cells were loaded with Fluo-4-NW (Invitrogen) according to the manufacturer's recommendation. Plates were loaded into a FlexStation™ (Molecular Devices) plate reader and fluorescence was monitored. Seventeen seconds following initiation of reading, cells were stimulated with the indicated agonist/compound at final concentration of 1 μM. Each 96 well plate contained cells transfected with one GPCR expression vector and each of the examined peptides was tested in triplicate.
as §4
Based on dose response experiments, EC50 best fit values were calculated by non-linear regression of sigmoidal dose-response curves, using Prism version 4 (GraphPad Software Inc., San Diego, Calif.). The formulae for the sigmoidal dose-response curves was defined as Y=Bottom+(Top−Bottom)/(1+10^(Log EC50−X)*HillSlope))
The ability of Peptides to change calcium flux was examined in CHO-K1 cells co-transfected with Mas receptor and Gα16.
The P33 monomer and dimer, as well as other P33 derivative peptides were compared for their ability to induce calcium flux in the Mas-transfected cells at 0.1, 1, 10, 100, 1000 and 10000 nM.

Test [3] relates to Zymosan-induced murine dorsal air pouch model. It is filed as in vivo, mice. The settings on record: 4 h. The procedure: In order to analyze the ability of P58 to exert in vivo effects via the FPRL1 receptor, an acute experimental model of inflammation, the Zymosan-induced murine dorsal air pouch model, was used.
Male out-bred Swiss albino mice were purchased from Harlan, UK (T.O. strain) and maintained on a standard chow pellet diet with tap water ad libitum and a 12:00 h light /dark cycle. All animals were housed for 7 days prior to experimentation to allow body weight to reach ˜30 g on the day of the experiment.
Drugs were stored at −20° C. and defrosted on the day of the experiment. Peptide P58 was provided lyophilized; it was taken back to room temperature and dissolved with sterile PBS before use to make an initial 1 mg/ml solution. Peptide Ac2-26 (positive control) was also dissolved with sterile PBS before use to make an initial 1 mg/ml solution. Vehicle consisted of sterile pyrogen free PBS (Gibco, cat no. 14190-094). Once dissolved, P58 (SEQ ID NO:1) and Ac2-26 gave a clear solution. Drugs or vehicle were administered i.v. at a final volume of 200-μl, this volume containing the doses described below.
Lavage fluids were kept all the time on ice, then used to determine the number of migrated leukocytes, by taking an aliquot (100 μl) and diluting it 1:10 in Turk's solution (0.01% crystal violet in 3% acetic acid). The samples were then vortexed and 10 μl of the stained cell solution were placed in a Neubauer haematocymometer. Differential cell count was done using a light microscope (Olympus B061). In view of their chromatic characteristics and their nucleus and cytoplasm appearance, polymorphonuclear leukocytes (PMN; >95% neutrophils) could be easily identified.
For FACS analyses, an aliquot of lavage fluid was stained with the PE-conjugated anti-GR-1 monoclonal antibody (1:100 dilution, BD Biosciences; Cat 553128) to mark polymorphonuclear leukocytes. Staining was performed at 4° C.
Flow cytometry was performed using FACScan analyser (Becton Dickinson, Cowley, UK) with air-cooled 100 mW argon laser tuned to 488 nm connected to an Apple Macintosh G3 computer running Cell Quest II software. Forward and sidescatter characteristics were initially used to distinguish between the three distinct cell populations (lymphocytes, monocytes and granulocytes). Cells positive for GR-1 were detected in the FL2 channel (wavelength of 548 nm). Data are expressed as percentage of positive cells (in relation to the specific mAb). Determination of positive and negative populations was performed based on the control staining with irrelevant IgG isotype (rat IgG2b) labelled with PE. Once determined, quadrants were rigorously maintained for all analyses.
Data are shown for single mice, and also shown as mean±S.E. of (n) mice per group. Statistical differences were determined by ANOVA, plus Student Newman Keuls test. A P value <0.05 was taken as significant.
The anti-inflammatory activity of P58 shorter derivatives was tested in the same model of acute inflammation used in Example 6, the Zymosan-induced murine dorsal air pouch model.
Male out-bred Swiss albino mice were purchased from Harlan, UK (T.O. strain) and maintained on a standard chow pellet diet with tap water ad libitum and a 12:00 h light /dark cycle. All animals were housed for 7 days prior to experimentation to allow body weight to reach ˜25 g on the day of the experiment.
Drugs were stored at −20° C. and defrosted on the day of the experiment. Peptide P58 (SEQ ID NO:1) was provided lyophilized; it was taken back to room temperature and dissolved with sterile PBS before use to make an initial 1 mg/ml solution. Peptide P58-4 (SEQ ID NO:2) was provided lyophilized; it was taken back to room temperature and dissolved with sterile PBS before use to make an initial 327 μg/ml solution. Peptide P58-5 (SEQ ID NO:3) was provided lyophilized; it was taken back to room temperature and dissolved with sterile PBS before use to make an initial 476 μg/ml solution. […]

Take “TIPMFVPESTSTLQKFTSWFM-amide (TIPMFVPESTSTLQKFTSWFM-NH2; listed as Homo sapiens) [P58—10]”: the “calcium flux (P58 family)” value in test [1] is on record as “elicited calcium flux”.

Take “WSRAVLFPAAHRP (listed as Homo sapiens) [P33—10]”: the “ability to induce calcium flux, relative potency (P33 family)” value in test [2] is “induced calcium flux, albeit at a somewhat lower degree compared to P33_V”. Further, in test [1], the “ability to induce calcium flux (P33 family)” value is listed as “failed to induce calcium flux”.

With “TIPMFVPESTSKLQ (listed as Homo sapiens) [P58—7]”, the “calcium flux (P58 family)” value in test [1] is “did not induce calcium flux”.

For the substance “FAFLGYSIYLNRKRRGDPAF (listed as Homo sapiens) [P61—11S]”, the “ability to induce calcium flux, relative potency (P61 family)” value in test [2] is on record as “as potent as P61_S”.

In the case of “TIPMFVPESTS (listed as Homo sapiens) [P58—6]”, in test [1], the “calcium flux (P58 family)” value was “did not induce calcium flux”.

With “SMCHRWSRAVLFPAAHRP [P33_dimer] (also: disulfide dimer via cysteine; listed as Homo sapiens) [Peptide P33_dimer]”, the “ability to induce calcium flux, relative potency (P33 family)” value in test [2] is on record as “superior to the monomeric peptides”.

Take “IYLNRKRRGDPAFKRRLRD (listed as Homo sapiens) [P61—4]”: in test [2], the “ability to induce calcium flux, relative potency (P61 family)” value is recorded as “somewhat weaker”.

Take “SMCHRWSRAVLFPAAHRP [P33_mono] (listed as Homo sapiens) [Peptide P33_mono]”: in test [2], the “ability to induce calcium flux, relative potency (P33 family)” value is listed as “equally potent”. Also, the “ability to induce calcium flux (P33 family)” value in test [1] is given as “similarly potent”.

For “Ac2-26: a peptide derived from the N-terminus of AnnexinI, known FPRL1 agonist, positive control (AMVSEFLKQAWFIENEEQEYVQTVK) [reference compound]”, the “inhibition of leukocyte accumulation triggered by zymosan A” value in test [3] (Example 6, 200 μg/mouse i.v.) was “inhibited significantly”. Further, the “inhibition of neutrophil (GR-1+) accumulation triggered by zymosan A” value in test [3] (Example 6, 200 μg/mouse i.v., FACS) is 52%.

As for “Angiotensin 1-7 [Ang-(1-7), reference compound]”, the Ca response entry in test [2] (Mas dose response experiment, data not shown) is recorded as “did not induce Ca response”.

Take “LQKFTSWFM-amide (LQKFTSWFM-NH2; listed as Homo sapiens) [P58—5]”: the “inhibition of leukocyte accumulation triggered by zymosan A” value in test [3] (Example 7, 20 nmole/mouse i.v.) is given as “did not inhibit leukocyte migration”; in test [3] (Example 7, 80 nmole/mouse i.v.) it was 29%. Further, in test [3] (Example 7, 20 nmole/mouse i.v., FACS), the “inhibition of zymosan-induced neutrophil (GR-1+) accumulation” value was “weak effect”. Also, the “calcium flux (P58 family)” value in test [1] is given as “elicited calcium flux”.

As to “AVLFPAAHRP (listed as Homo sapiens) [P33—5]”, the “ability to induce calcium flux (P33 family)” value in test [1] is on record as “failed to induce calcium flux”.

Regarding “RWSRAVLFPAAHRP (listed as Homo sapiens) [P33—8]”, the “ability to induce calcium flux, relative potency (P33 family)” value in test [2] is reported as “induced calcium flux, albeit at a somewhat lower degree compared to P33_V”. Besides, the “ability to induce calcium flux (P33 family)” value in test [1] is listed as “failed to induce calcium flux”.

Turning to “TIPMFVPESTSTLQ (listed as Homo sapiens) [P58—12]”, the “calcium flux (P58 family)” value in test [1] was “did not induce calcium flux”.

Consider “FTSWFM-amide (FTSWFM-NH2; listed as Homo sapiens) [P58—4]”, for which the “inhibition of leukocyte accumulation triggered by zymosan A” value is on record as 35% in test [3] (Example 7, 20 nmole/mouse i.v.) and 47% in test [3] (Example 7, 80 nmole/mouse i.v.). Moreover, the “inhibition of zymosan-induced neutrophil (GR-1+) accumulation” value in test [3] (Example 7, 80 nmole/mouse i.v., FACS) turned out to be 49%. Also, in test [1], the “calcium flux (P58 family)” value is “elicited calcium flux”.

In the case of “HRWSRAVLFPAAHRP (listed as Homo sapiens) [P33—9]”, the “ability to induce calcium flux, relative potency (P33 family)” value in test [2] is listed as “induced calcium flux, albeit at a somewhat lower degree compared to P33_V”. In addition, the “ability to induce calcium flux (P33 family)” value in test [1] is “failed to induce calcium flux”.
